Data taken from patent publication US20240368223A1 (KAGOSHIMA UNIVERSITY, published 2024).
Values belong to the binder of their own block, whether it stands above or below them. Bridges are numbered along the chain shown (N, C = ends). Where no end group is shown, it is not given here. [ ]: non-standard residue; d: D form. hCys = N[C@@H](CCS)C(=O)O

Tests used:
human IgG Fc = target: T1, human IgG Fc (human, UniProt P01857-1 108-330 = IgG part); assay: X-ray crystal structure of the Fc/peptide complex
T1 construct: domain: Fc; also called human IgG1 Fc
Procedure: 70 μL of the crystallizing agent was dispensed thereto as a reservoir solution. The plate was hermetically sealed using PowerSeal CRISTAL VIEW (manufactured by Greiner Bio-One Co., Ltd.) and then left standing for approximately 2 weeks in a thermostat bath of 20° C. to obtain crystals.
The assay was carried out at an X-ray wavelength of 1 angstrom and an angle of oscillation of 1°/frame. Next, the diffraction intensity data was processed at a resolution of 3.0 angstroms using a diffraction intensity data processing program HKL2000 (manufactured by HKL Research Inc.).
A Fc moiety model registered as PDB accession code: 1DN2 in the Protein Data Bank (PDB, URL: http://www.rcsb.org/pdb/) was utilized as a search model for the molecular replacement method.

bovine serum albumin = target: T2, bovine serum albumin (bovine, UniProt P02769 25-607); assay: size exclusion chromatography with fluorescence detection at 565 nm
T2 construct: also called BSA
T2 sequence (P02769 25-607 limits assumed): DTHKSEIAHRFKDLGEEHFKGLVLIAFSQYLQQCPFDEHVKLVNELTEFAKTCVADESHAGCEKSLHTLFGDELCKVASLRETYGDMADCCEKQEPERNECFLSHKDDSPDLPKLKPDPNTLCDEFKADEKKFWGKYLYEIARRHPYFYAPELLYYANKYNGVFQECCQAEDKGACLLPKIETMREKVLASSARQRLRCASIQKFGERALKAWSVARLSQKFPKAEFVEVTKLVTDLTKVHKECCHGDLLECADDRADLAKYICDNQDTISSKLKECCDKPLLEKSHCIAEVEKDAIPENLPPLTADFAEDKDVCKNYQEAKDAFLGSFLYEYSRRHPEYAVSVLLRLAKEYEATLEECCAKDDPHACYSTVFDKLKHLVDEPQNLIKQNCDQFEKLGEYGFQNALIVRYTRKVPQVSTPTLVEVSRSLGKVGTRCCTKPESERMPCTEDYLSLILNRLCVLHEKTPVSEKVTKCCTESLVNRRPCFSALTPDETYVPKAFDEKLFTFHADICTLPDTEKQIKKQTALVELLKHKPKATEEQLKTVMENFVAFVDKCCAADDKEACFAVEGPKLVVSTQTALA
Procedure: The reaction was terminated by the addition of 10 μL of 1 M Tris-HCl (pH=7.0). Then, size exclusion chromatography was performed using Superdex™ 200 10/30GL 1.0 cm in diameter×30 cm (GE Healthcare Japan Corp.); flow rate: 0.3 ml/min; running buffer: PBS pH 7.4. Assay was conducted using a fluorescence detector RF-10A (Shimadzu Corp.) (excitation light: 541 nm, fluorescence: 565 nm).

binding result (human IgG Fc): binds
B1: cyclic homocysteine peptide G(HC)DCAYHRGELVWCT(HC)H-NH2 (peptide)
peptide: G[hCys]DCAYHRGELVWCT[hCys]H-NH2
modifications: disulfide 4-14, 2-16; N-terminus assumed
SMILES: CC(C)C[C@@H]1NC(=O)[C@H](CCC(=O)O)NC(=O)CNC(=O)[C@H](CCCNC(=N)N)NC(=O)[C@H](Cc2c[nH]cn2)NC(=O)[C@H](Cc2ccc(O)cc2)NC(=O)[C@H](C)NC(=O)[C@@H]2CSSC[C@H](NC(=O)[C@H](Cc3c[nH]c4ccccc34)NC(=O)[C@H](C(C)C)NC1=O)C(=O)N[C@@H]([C@@H](C)O)C(=O)N[C@H](C(=O)N[C@@H](Cc1c[nH]cn1)C(N)=O)CCSSCC[C@H](NC(=O)CN)C(=O)N[C@@H](CC(=O)O)C(=O)N2
notes: Peptide put into the crystals with Fc; Residue numbers in the text (Arg8) count on the 17-residue peptide

binding result (bovine serum albumin): no binding
B2: fluorescent (5/6 TAMRA-PEG4) IgG-binding peptide modified with DSG (peptide)
peptide: GPDCAYHXGELVWCTFH
modifications: X at position 8 (lysine in Type I(R8K)) modified with DSG; N-terminal amino-PEG4 modified with 5/6 TAMURA succinimidyl ester (fluorescent dye); C-terminal amide; intramolecular S-S bond
notes: also called DSG-cross-linked peptide

binding result (bovine serum albumin): no binding
B3: fluorescent (5/6 TAMRA-PEG4) IgG-binding peptide modified with DSS (peptide)
peptide: GPDCAYHXGELVWCTFH
modifications: X at position 8 (lysine in Type I(R8K)) modified with DSS; N-terminal amino-PEG4 modified with 5/6 TAMURA succinimidyl ester (fluorescent dye); C-terminal amide; intramolecular S-S bond
notes: also called DSS-crosslinked peptide
